± gives the uncertainty stated by the source.
Assay: protein stability index of a GFP-peptide fusion (yeast GPS) (PSI 1-4); higher = more stable; sorted into four equal gates, so the index is relative within each strain
How it was run: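 Plasmids in a pooled yeast library fused tiled 17-residue yeast protein peptides downstream of GFP and also expressed Cherry. Mid-log cultures grown without leucine were sorted into four equal gates by GFP/Cherry fluorescence ratio. Each gate's plasmids were PCR-amplified and Illumina-sequenced, and reads were matched to strains by barcodes. The protein stability index is derived by multiplying each gate's read frequency by its gate number and summing the results.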

| Sequence | protein stability index (doa10∆) | protein stability index (pdr5∆) | protein stability index (san1∆) | protein stability index (ubr1∆) |
| --- | --- | --- | --- | --- |
| KGKKYQPKDLRAKKTRA [RPL35A] | 2.85 ± 0.25 | 2.98 ± 0.14 | 2.46 ± 0.13 | 2.89 ± 0.12 |
| EDNEMLEDLFSYRNGMA [YJR042W/NUP85] | 2.02 ± 0.082 | 1.89 ± 0.086 | 2.65 ± 0.089 | 1.95 ± 0.079 |
| INKMVGNRYLEKRLNLR [RPL21A] | 2.65 ± 0.085 | 2.8 ± 0.077 | 2.92 ± 0.092 | 3 ± 0.065 |
| TAIAHSIREQVHMYHKS [SNF5] | 1.89 ± 0.044 | 1.92 ± 0.047 | 2.23 ± 0.069 | 2.12 ± 0.044 |
| ALMKTLIKFVDLSRNGR [NUT1] | 2.37 ± 0.11 | 2.29 ± 0.09 | 2.26 ± 0.11 | 2.65 ± 0.15 |
| GVKDCQEGLITTTMLQL [SSN2] | 2.46 ± 0.083 | 2.5 ± 0.1 | 2.74 ± 0.079 | 2.6 ± 0.052 |
| DTFRWVGKKSAPEKDIW [RPO31] | 2.79 ± 0.095 | 2.88 ± 0.11 | 2.9 ± 0.067 | 3.15 ± 0.061 |
| SYFLQERYFDCCTKFFT [PCI8] | 1.54 ± 0.069 | 1.52 ± 0.059 | 1.76 ± 0.08 | 2.13 ± 0.044 |
| QHTTESDNISRKYEISF [RPB2] | 3.16 ± 0.11 | 3.17 ± 0.088 | 2.92 ± 0.098 | 3.2 ± 0.11 |
| VFLEFSLNFIPITASTS [YML103C/NUP188] | 1.27 ± 0.068 | 1.34 ± 0.049 | 1.62 ± 0.097 | 1.48 ± 0.038 |
| ADTLDPALLRPGRLDRK [RPT3] | 3.57 ± 0.17 | 3.56 ± 0.16 | 3.26 ± 0.23 | 3.3 ± 0.2 |
| KLKYHDFLRKATAFNKT [RPL16A] | 1.16 ± 0.13 | 1.24 ± 0.14 | – | 1.22 ± 0.15 |
| KREIQEALSEKPTREPT [RPC53] | 2.96 ± 0.11 | 2.86 ± 0.098 | 3.05 ± 0.11 | 3.15 ± 0.1 |
| GVYSDDELLSQLDLCKL [SRP68] | 3.09 ± 0.063 | 3.21 ± 0.053 | 3.23 ± 0.043 | 3.15 ± 0.068 |
| KGRSYAYFMVGAMGLLS [RIP1] | 2.39 ± 0.11 | 2.82 ± 0.12 | 3.16 ± 0.2 | 2.98 ± 0.074 |
| LIRFDESITKAMEFIFG [SMC2] | 2.45 ± 0.082 | 2.52 ± 0.17 | 2.35 ± 0.16 | – |
| LYTLVINDAGKAKKLIQ [RPL38] | 2.06 ± 0.11 | 2.19 ± 0.098 | 1.99 ± 0.1 | 1.56 ± 0.13 |
| ITLVEPEILRFKVYEPL [RPS16A] | – | 3.25 ± 0.21 | 2.54 ± 0.22 | 2.75 ± 0.074 |
| MKYLAAYLLLVQGGNAA [RPP2B] | 1.53 ± 0.051 | 1.78 ± 0.038 | 1.78 ± 0.069 | 2 ± 0.065 |
| TNNMEKIIEDLRQKHEF [SMC2] | 3.12 ± 0.055 | 2.9 ± 0.046 | 3.13 ± 0.033 | 3.15 ± 0.033 |
| LIPCKYLNRHADFFVRE [RPN7] | 2.62 ± 0.092 | 2.49 ± 0.12 | 2.18 ± 0.19 | 2.81 ± 0.11 |
| QLQQQPQMQCALQNLSQ [YGL172W/NUP49] | 2.19 ± 0.12 | 2.06 ± 0.09 | 2.42 ± 0.11 | 2.18 ± 0.077 |
| TEKLSPLASEESLTNSN [YGL100W/SEH1] | 3.36 ± 0.13 | 3.25 ± 0.14 | 3.12 ± 0.099 | 3.32 ± 0.075 |
| DGRSFDQFRDVEITFGK [RRP45] | 3.27 ± 0.092 | 3.3 ± 0.058 | 3.54 ± 0.077 | 3.21 ± 0.057 |
| IKKFAKLHMGTEDVRLA [RPL31B] | 3.21 ± 0.21 | 3.21 ± 0.22 | 2.71 ± 0.15 | 2.73 ± 0.14 |
| LISSSLSNLSKDIKANL [YCS4] | 2.26 ± 0.057 | 1.72 ± 0.061 | 1.87 ± 0.1 | 2.35 ± 0.067 |
| LKIYAQIEKKEIKKMII [YCG1] | 3.06 ± 0.059 | 2.8 ± 0.051 | 2.89 ± 0.057 | 3.01 ± 0.07 |

| Sequence | protein stability index (doa10∆) | protein stability index (pdr5∆) | protein stability index (san1∆) | protein stability index (ubr1∆) |
| --- | --- | --- | --- | --- |
| RQQYYSGVQVGGVGSMG [SNF6] | 2.08 ± 0.068 | 2.44 ± 0.11 | 2.19 ± 0.094 | 2.24 ± 0.056 |
| VQGSTLAQLTSKLIPEV [RPS1A] | 2.79 ± 0.061 | 2.96 ± 0.063 | 3.01 ± 0.051 | 2.76 ± 0.045 |
| QGNPKKRPGKLSDYIPG [CYT1] | 3.17 ± 0.066 | 3.24 ± 0.067 | 3.23 ± 0.044 | 3.17 ± 0.032 |
| VLKKPNRAMEYDALLSI [RET1] | – | 2.33 ± 0.19 | 1.69 ± 0.28 | – |
| RLRQFNLQPISTPENVP [SMC4] | 1.69 ± 0.081 | 1.76 ± 0.067 | 1.61 ± 0.14 | 1.73 ± 0.052 |
| DAKTSYPNEVLKFNHGN [REC8] | 2.78 ± 0.052 | 2.95 ± 0.072 | 3.02 ± 0.058 | 2.95 ± 0.065 |
| PKNVKGEEDADEEETAE [RPN1] | 3.21 ± 0.17 | 3.16 ± 0.26 | 3.01 ± 0.14 | – |
| FETFLVDVNNKFIALCE [SIN4] | 2.94 ± 0.062 | 3.05 ± 0.049 | 3.09 ± 0.045 | 3.1 ± 0.059 |
| LNLDSLLVDQKQLNSLR [SMD1] | 2.51 ± 0.051 | 2.79 ± 0.059 | 2.98 ± 0.067 | 2.51 ± 0.062 |
| SSATIVLCLTRSSYMLE [YCG1] | 1.76 ± 0.035 | 2.1 ± 0.038 | 1.91 ± 0.048 | 2.23 ± 0.032 |
| QSFQNPFTASQSNINTN [YIL149C/MLP2] | 2.57 ± 0.067 | 2.55 ± 0.044 | 2.62 ± 0.053 | 2.73 ± 0.043 |
| ALQILNSGIIPGNRNAD [FAS2] | 2.38 ± 0.075 | 1.9 ± 0.068 | 2.72 ± 0.1 | 2.8 ± 0.052 |
| PKKEYDDDAVRREVQIQ [NSL1] | 1.4 ± 0.18 | 2.11 ± 0.25 | 1.36 ± 0.29 | 2.38 ± 0.21 |
| KALRRKIYINLALGSHN [SSN2] | 3.05 ± 0.21 | 2.76 ± 0.15 | 2.4 ± 0.11 | 3.48 ± 0.15 |
| FILLDRLRQFNLQPIST [SMC4] | 2.22 ± 0.04 | 1.56 ± 0.037 | 1.49 ± 0.061 | 1.32 ± 0.042 |
| EITSVLSNLHESNKRYR [SNF12] | 3.1 ± 0.085 | 3.05 ± 0.071 | 2.94 ± 0.054 | 3.08 ± 0.052 |
| EYKTSSDSLGPDTSNEI [SRB2] | 2.67 ± 0.23 | 2.47 ± 0.089 | 2.96 ± 0.2 | 2.55 ± 0.1 |
| DRKHVAALRTVKSLVDN [RPL9B] | – | 2.83 ± 0.22 | 2.83 ± 0.14 | – |
| SRKQKVIKTLTVDVSSP [RPL22B] | 2.52 ± 0.094 | 2.6 ± 0.08 | 2.36 ± 0.12 | 2.79 ± 0.058 |
| MRSTSILTEHLGYPPIS [MTW1] | 2.9 ± 0.076 | 2.74 ± 0.065 | 2.87 ± 0.062 | 3.06 ± 0.091 |
| GQSAGKLAAIVEIIDQK [RPL14A] | 3.28 ± 0.098 | 3.29 ± 0.11 | 2.82 ± 0.11 | 3.41 ± 0.066 |
| DGGYNAQLAKAKTELNE [SMC2] | 2.64 ± 0.092 | 1.94 ± 0.058 | 1.44 ± 0.072 | 1.5 ± 0.038 |
| MLLGTDLCSLKPYVDRF [DIS3] | 2.62 ± 0.06 | 2.68 ± 0.066 | 2.66 ± 0.067 | 2.92 ± 0.052 |
| RKALPKEPKKLLPNSKN [DSN1] | 2.55 ± 0.063 | 2.69 ± 0.071 | 2.69 ± 0.084 | 2.87 ± 0.05 |
| MVLRNVMEYDVKFYEIF [SRB8] | 1.88 ± 0.081 | 2 ± 0.099 | 1.62 ± 0.099 | 2.1 ± 0.067 |
| ERLKQLTPNEIKELEHL [SWP82] | 2.83 ± 0.064 | 2.84 ± 0.083 | 2.73 ± 0.049 | 2.7 ± 0.054 |

Reference: the supplement of paper PMC9732359
